Experimental data reported in patent publication US20110191904A1.
Like-named read-outs stand apart in the source and are kept apart here. One block for each molecule: values may come before it.

Key:
Experiment in all cases: cell-based or functional assay
[1] = molecular target: T1, Arabidopsis FAD2 (At3g12120) (Arabidopsis thaliana) (UniProt P46313)
T1 sequence (looked up): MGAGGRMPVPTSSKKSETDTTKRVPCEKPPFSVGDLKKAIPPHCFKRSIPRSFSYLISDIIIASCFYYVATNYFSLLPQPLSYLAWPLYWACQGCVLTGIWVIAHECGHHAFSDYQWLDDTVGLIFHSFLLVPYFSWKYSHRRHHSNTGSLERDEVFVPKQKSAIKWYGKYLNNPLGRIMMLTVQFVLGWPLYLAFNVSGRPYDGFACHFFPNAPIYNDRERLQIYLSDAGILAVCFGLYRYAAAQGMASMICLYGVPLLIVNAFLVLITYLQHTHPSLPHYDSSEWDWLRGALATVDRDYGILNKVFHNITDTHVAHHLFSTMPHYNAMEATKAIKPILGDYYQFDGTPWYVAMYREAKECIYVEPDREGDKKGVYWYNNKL

[2] = molecular target: T2, Arabidopsis FAD3 (At2g29980) (Arabidopsis thaliana) (UniProt P48623)
T2 sequence (looked up): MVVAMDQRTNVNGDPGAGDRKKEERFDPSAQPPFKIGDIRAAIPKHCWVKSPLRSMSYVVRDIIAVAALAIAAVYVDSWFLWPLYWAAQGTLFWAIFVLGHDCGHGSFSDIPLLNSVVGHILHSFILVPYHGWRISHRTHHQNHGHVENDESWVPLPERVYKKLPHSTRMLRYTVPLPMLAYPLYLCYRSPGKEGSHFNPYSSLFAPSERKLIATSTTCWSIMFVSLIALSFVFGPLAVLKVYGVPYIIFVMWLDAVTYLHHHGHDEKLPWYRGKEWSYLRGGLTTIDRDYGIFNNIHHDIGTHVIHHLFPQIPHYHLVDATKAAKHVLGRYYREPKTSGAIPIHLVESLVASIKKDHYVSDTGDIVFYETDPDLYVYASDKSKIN

[3] = molecular target: T2, Arabidopsis FAD3 (At2g29980) (Arabidopsis thaliana); remark: listed apart in the source
[4] = molecular target: T1, Arabidopsis FAD2 (At3g12120) (Arabidopsis thaliana); remark: listed apart in the source

- 16:2 content of cb5 mutant yeast co-expressing both, 15 C (GC-FID) (mol percentage of total fatty acids) [1]: 1.3
- 16:2 content of cb5 mutant yeast co-expressing both, 28 C (GC-FID) (mol percentage of total fatty acids) [1]: 1.2
- 18:2 content of cb5 mutant yeast co-expressing both, 15 C (GC-FID) (mol percentage of total fatty acids) [1]: 7.4
- 18:2 content of cb5 mutant yeast co-expressing both, 28 C (GC-FID) (mol percentage of total fatty acids) [1]: 6
- 18:3 content of cb5 mutant yeast co-expressing both, 15 C, 18:2 fed (GC-FID) (mol percentage of total fatty acids) [2]: 11.8
- 18:3 content of cb5 mutant yeast co-expressing both, 28 C, 18:2 fed (GC-FID) (mol percentage of total fatty acids) [2]: 8.2
Molecule: Arabidopsis cytochrome b5 Cb5-B (At5g48810) (from UniProt Q9ZWT2 1-140)

- 18:3 content of cb5 mutant yeast co-expressing both, 15 C, 18:2 fed (GC-FID) (mol percentage of total fatty acids) [3]: 12.6
- 18:3 content of cb5 mutant yeast co-expressing both, 28 C, 18:2 fed (GC-FID) (mol percentage of total fatty acids) [3]: 8.2
B4: Arabidopsis cytochrome b5 Cb5-E (At2g32720) (protein, Arabidopsis thaliana, UniProt O48845 1-134, looked up)
chain: MGDEAKIFTLSEVSEHNQAHDCWIVINGKVYNVTKFLEDHPGGDDVLLSSTGKDATDDFEDVGHSESAREMMEQYYVGEIDPTTIPKKVKYTPPKQPHYNQDKTSEFIIKLLQFLVPLAILGLAVGIRIYTKSG

Continued, molecule first:

B1: soybean (Glycine max) cytochrome b5 GmCb5-C2 (protein)
chain: MGSKTKTFTFEEVAKHNHRKDCWIIVKGKVYDVTPFLDDHPGGDEVLVTATEKDATTDFEDIGHSDSATQMMEKYFVGEVDTNTLPAQVTSNNSVRQPTQAPPAYNNQSSGFVVKMLQYIVPLLILAFAFGLQYYGKKNKSTESEN
- 18:3 content of cb5 mutant yeast co-expressing both, 15 C, 18:2 fed (GC-FID) (mol percentage of total fatty acids) [3]: 3.8
- 18:3 content of cb5 mutant yeast co-expressing both, 28 C, 18:2 fed (GC-FID) (mol percentage of total fatty acids) [3]: 3.9

B2: Arabidopsis cytochrome b5 Cb5-C (At2g46650) (protein, Arabidopsis thaliana, UniProt Q9ZNV4 1-132, looked up)
chain: MANLISFHDVAKHKCKNDCWILIHGKVYDISTFMDEHPGGDNVLLAVTGKDASIDFEDVNHSKDAKELMKKYCIGDVDQSTVPVTQQYIPPWEKESTAAETTKEESGKKLLIYLIPLLILGVAFALRFYNNK
- 16:2 content of cb5 mutant yeast co-expressing both, 15 C (GC-FID) (mol percentage of total fatty acids) [4]: 1.2
- 16:2 content of cb5 mutant yeast co-expressing both, 28 C (GC-FID) (mol percentage of total fatty acids) [4]: 0.9
- 18:2 content of cb5 mutant yeast co-expressing both, 15 C (GC-FID) (mol percentage of total fatty acids) [4]: 7.2
- 18:2 content of cb5 mutant yeast co-expressing both, 28 C (GC-FID) (mol percentage of total fatty acids) [4]: 6.4

B3: soybean (Glycine max) cytochrome b5 GmCb5-C3 (protein)
chain: MASNPKTLTFEEVAKHNNKKDCWIIINGKVYDITPFLDEHPGGDEVLLTSTGKDATIDFEDVGHSDSAIEMMEKYFIGKVDTSTLPPKVSHSLPQPTQTHGAGNQSSGFVVKILQFLLPLLILGLAFALQYYGQKKHASTS
- 18:3 content of cb5 mutant yeast co-expressing both, 15 C, 18:2 fed (GC-FID) (mol percentage of total fatty acids) [3]: 2
- 18:3 content of cb5 mutant yeast co-expressing both, 28 C, 18:2 fed (GC-FID) (mol percentage of total fatty acids) [3]: 2.6
